{
  "source": "patent US8911953B2",
  "about": "“TDF-related compounds and analogs thereof, analogs and bioactive fragments” (Thrasos Innovation, Inc., priority 2005, dated 2014)",
  "molecules": {"B1": {"name": "BMP-6: bone morphogenetic protein BMP-6 (Vgr-1) (protein, UniProt P22004 375-513, looked up)", "Bone morphogenetic protein 6": "SASSRRRQQSRNRSTQSQDVARVSSASDYNSSELKTACRKHELYVSFQDLGWQDWIIAPKGYAANYCDGECSFPLNAHMNATNHAIVQTLVHLMNPEYVPKPCCAPTKLNAISVLYFDDNSNVILKKYRNMVVRACGCH"}},
  "key": {"LNCaP": {"test_system": "LNCaP", "test": "Cancer cell proliferation, tritiated thymidine incorporation", "type": "cell-based, human", "conditions": "LNCaP cultured in vitro", "description": "(§1) TDFRP Compound Inhibition of LNCaP Cancer Cell Proliferation. BMP-6 and a TDFRP compound (SEQ ID NO:45) inhibited the proliferation of prostate cancer cells (LNCaP and PC-3) cultured in vitro as detected by the incorporation of tritiated thymidine (a measure of cell proliferation.\n(§2) Prostate cancer is one of the most common cancers in men. […] Moreover, it has been shown that BMP signals inhibit the growth and the proliferation of human prostate tumor cells by upregulating the cyclin-dependent kinase inhibitor (CDKI) p21 (CIP1/WAF1) and decreasing the activity of Cdk2, leading to hypophosphorylation of Rb proteins. TDFRP compounds have been screened in in vitro prostate and bladder cancer bioassays to assess growth inhibitory activity of the compounds (FIG. 3). ^3H-thymidine incorporation is used as a marker for cell proliferation activity in human prostate and bladder cancer cell lines. Cisplatin inhibits ^3H-thymidine incorporation, indicating a tumor-growth suppressive activity of cisplatin in both human prostate and bladder cancer cells. TDFRP compounds are assayed in these cancer cells for the ability to induce receptor-regulated Smad 1/5 phosphorylation in a dose-dependent manner (FIG.).\nas §2, with “(FIGS. 3, 28).” for “(FIG. 3).”, “(FIGS. 3, 28).” for “(FIG.).”"}, "PC-3": {"test_system": "PC-3", "test": "Cancer cell proliferation, tritiated thymidine incorporation", "type": "cell-based, human", "conditions": "PC-3 cultured in vitro", "description": "as §1, §2\nas §2, with “(FIGS. 3, 28).” for “(FIG. 3).”, “(FIGS. 3, 28).” for “(FIG.).”"}, "[1]": {"test_system": "LNCaP human prostate cancer cells", "test": "Smad phosphorylation in LNCaP prostate cancer cells (Western blot)", "type": "cell-based", "conditions": "single agent, cultured LNCaP cells", "method": "The detection of Smad phosphorylation by Western analysis, for example in LNCaP (prostate cancer cells) or EC (vascular endothelial cells) in culture medium can be examined after exposure to varying concentrations of TDFRP or control compounds. BMP-7 serves as a positive control. Cells are lysed in RIPA lysis buffer (50 mM Tris-HCl at pH 8.0, 150 mM NaCl, 1% NP-40, 0.5% sodium deoxycholate, 0.1% SDS) containing 1 mM PMSF, 1 mM sodium orthovanadate, and 10 ug/mL proteinase inhibitor cocktail. Lysates are incubated on ice for 15 minutes, centrifuged, and transferred supernatant to a clean tube. 50 to 100 ug is used for analysis by SDS-PAGE. Resolved proteins are electro transferred onto PVDF membrane. The blot is blocked by incubating in 3% non-fat dry milk prepared in PBS at room temperature for 1 hour with constant slow agitation. The blot is incubated with 1-2 ug/mL of primary antibody (rabbit anti-phospho-Smad 1) prepared in PBS-milk, overnight with agitation at 4 degree C., washed twice with PBS, and incubated with secondary antibody (anti rabbit HRP conjugated IgG, 1:3000 dilution) at room temperature for 2 hours with agitation. After washing in PBS-0.05% Tween 20 for 5 minutes and rinsing, Smad phosphorylation is detected via an HRP reaction according to manufacturer's instructions (FIGS. 2, 3, 18, 2X).\nFor detection of Smad phosphorylation by Western analysis, LNCaP (prostate cancer cells) or EC (vascular endothelial cells) in culture medium are exposed to varying concentrations of TDFRP or control compounds. BMP-7 served as a positive control. Cells are lysed in RIPA lysis buffer (50 mM Tris-HCl at pH 8.0, 150 mM NaCl, 1% NP-40, 0.5% sodium deoxycholate, 0.1% SDS) containing 1 mM PMSF, 1 mM sodium orthovanadate, and 10 ug/mL proteinase inhibitor cocktail. Lysates are incubated on ice for 15 minutes, centrifuged, and transferred supernatant to a clean tube. 50 to 100 ug is used for analysis by\nSDS-PAGE. Resolved proteins are electro transferred onto PVDF membrane. The blot is blocked by incubating in 3% non-fat dry milk prepared in PBS at room temperature for 1 hour with constant slow agitation. The blot is incubated with 1-2 ug/mL of primary antibody (rabbit anti-phospho-Smad 1) prepared in PBS-milk, overnight with agitation at 4 degree C., washed twice with PBS, and incubated with secondary antibody (anti rabbit HRP conjugated IgG, 1:3000 dilution) at room temperature for 2 hours with agitation. After washing in PBS-0.05% Tween 20 for 5 minutes and rinsing, Smad phosphorylation is detected via an HRP reaction according to manufacturer's instructions (FIGS. 3, 27).\nBMP signaling molecules co-administered with TDFRP compounds show synergistic or enhanced downstream signaling as detected by Smad phosphorylation. Smad phosphorylation was assessed by Western analysis in LNCaP (prostate cancer cells) or EC (vascular endothelial cells) cells in culture medium exposed to varying concentrations of TDFRP or control compounds. BMP-7 served as a positive control. Cells are lysed in RIPA lysis buffer (50 mM Tris-HCl at pH 8.0, 150 mM NaCl, 1% NP-40, 0.5% sodium deoxycholate, 0.1% SDS) containing 1 mM PMSF, 1 mM sodium orthovanadate, and 10 ug/mL proteinase inhibitor cocktail. Lysates are incubated on ice for 15 minutes, centrifuged, and transferred supernatant to a clean tube. 50 to 100 ug is used for analysis by SDS-PAGE. Resolved proteins are electro transferred onto PVDF membrane. […]"}},
  "note": "Entries after “also recorded” stand apart in the source; their conditions may differ.",
  "data": [
    {"molecule": "B1", "values": [
      {"measurement": "proliferation (incorporation of tritiated thymidine)", "setting": "LNCaP", "value": "inhibited"},
      {"measurement": "proliferation (incorporation of tritiated thymidine)", "setting": "PC-3", "value": "inhibited"},
      {"measurement": "Smad phosphorylation and activation", "setting": "[1]", "value": "induced; also recorded: Smad 1, 5, 8 phosphorylation and activation"}
    ]}
  ]
}
